# B1: Hairpin Ribozyme (parent)
# chain: GUCCUCUUUCACGUGCGCGUGAAAGAGAGAAGUGAACCAGAGAAACACACGUUGUGGUAUAUUACCUGGUA
# Variants of: B1
# Assay: self-cleavage, relative activity (ratio to wild type); higher = more cleavage; co-transcriptional
row,Variant,self-cleavage
1,GUCCUCUUUCACGUGCGCGUGAAAGAGAGAAGUGAACCAGAGAAACACACGUUGUGGUAGAUUACCCGGUA [U60G U67C],0.121
2,GUCCUCUUUCACGUGCGCGUGAAAGAGAGAAGUGAACCAGAGAAACACACGUUGUGGUAGAUUACCUGGAA [U60G U70A],0.572
3,GUCCUCUUUCACGUGCGCGUGAAAGAGAGAAGUGAACCAGAGAAACACACGUUGUGGUAGAUUACCUGGCA [U60G U70C],0.372
4,GUCCUCUUUCACGUGCGCGUGAAAGAGAGAAGUGAACCAGAGAAACACACGUUGUGGUAUCUUGCCUGGUA [A61C A64G],0.185
5,GUCCUCUUUCACGUGCGCGUGAAAGAGAGAAGUGAACCAGAGAAACACACGUUGUGGUAUCUUUCCUGGUA [A61C A64U],0.179
6,GUCCUCUUUCACGUGCGCGUGAAAGAGAGAAGUGAACCAGAGAAACACACGUUGUGGUAUCUUACCUGGUC [A61C A71C],0.285
7,GUCCUCUUUCACGUGCGCGUGAAAGAGAGAAGUGAACCAGAGAAACACACGUUGUGGUAUCUUACCUGGUU [A61C A71U],0.164
8,GUCCUCUUUCACGUGCGCGUGAAAGAGAGAAGUGAACCAGAGAAACACACGUUGUGGUAUCUUAUCUGGUA [A61C C65U],0.148
9,GUCCUCUUUCACGUGCGCGUGAAAGAGAGAAGUGAACCAGAGAAACACACGUUGUGGUAUCUUACAUGGUA [A61C C66A],0.0988
10,GUCCUCUUUCACGUGCGCGUGAAAGAGAGAAGUGAACCAGAGAAACACACGUUGUGGUAUCUUACGUGGUA [A61C C66G],0.101
11,GUCCUCUUUCACGUGCGCGUGAAAGAGAGAAGUGAACCAGAGAAACACACGUUGUGGUAUCUUACUUGGUA [A61C C66U],0.145
12,GUCCUCUUUCACGUGCGCGUGAAAGAGAGAAGUGAACCAGAGAAACACACGUUGUGGUAUCUUACCUCGUA [A61C G68C],0.153
13,GUCCUCUUUCACGUGCGCGUGAAAGAGAGAAGUGAACCAGAGAAACACACGUUGUGGUAUCAUACCUGGUA [A61C U62A],0.143
14,GUCCUCUUUCACGUGCGCGUGAAAGAGAGAAGUGAACCAGAGAAACACACGUUGUGGUAUCGUACCUGGUA [A61C U62G],0.102
15,GUCCUCUUUCACGUGCGCGUGAAAGAGAGAAGUGAACCAGAGAAACACACGUUGUGGUAUCUCACCUGGUA [A61C U63C],0.284
16,GUCCUCUUUCACGUGCGCGUGAAAGAGAGAAGUGAACCAGAGAAACACACGUUGUGGUAUCUGACCUGGUA [A61C U63G],0.12
17,GUCCUCUUUCACGUGCGCGUGAAAGAGAGAAGUGAACCAGAGAAACACACGUUGUGGUAUCUUACCGGGUA [A61C U67G],0.24
18,GUCCUCUUUCACGUGCGCGUGAAAGAGAGAAGUGAACCAGAGAAACACACGUUGUGGUAUCUUACCUGGAA [A61C U70A],0.204
19,GUCCUCUUUCACGUGCGCGUGAAAGAGAGAAGUGAACCAGAGAAACACACGUUGUGGUAUCUUACCUGGGA [A61C U70G],0.146

row,Variant,self-cleavage
1,GUCCUCUUUCACGUGCGCGUGAAAGAGAGAAGUGAACCAGAGAAACACACGUUGUGGUAUGUUGCCUGGUA [A61G A64G],0.141
2,GUCCUCUUUCACGUGCGCGUGAAAGAGAGAAGUGAACCAGAGAAACACACGUUGUGGUAUGUUACCUGGUU [A61G A71U],0.393
3,GUCCUCUUUCACGUGCGCGUGAAAGAGAGAAGUGAACCAGAGAAACACACGUUGUGGUAUGUUAUCUGGUA [A61G C65U],0.192
4,GUCCUCUUUCACGUGCGCGUGAAAGAGAGAAGUGAACCAGAGAAACACACGUUGUGGUAUGUUACUUGGUA [A61G C66U],0.277
5,GUCCUCUUUCACGUGCGCGUGAAAGAGAGAAGUGAACCAGAGAAACACACGUUGUGGUAUGUUACCUAGUA [A61G G68A],0.275
6,GUCCUCUUUCACGUGCGCGUGAAAGAGAGAAGUGAACCAGAGAAACACACGUUGUGGUAUGUUACCUUGUA [A61G G68U],0.163
7,GUCCUCUUUCACGUGCGCGUGAAAGAGAGAAGUGAACCAGAGAAACACACGUUGUGGUAUGUUACCUGCUA [A61G G69C],0.156
8,GUCCUCUUUCACGUGCGCGUGAAAGAGAGAAGUGAACCAGAGAAACACACGUUGUGGUAUGUUACCUGUUA [A61G G69U],0.128
9,GUCCUCUUUCACGUGCGCGUGAAAGAGAGAAGUGAACCAGAGAAACACACGUUGUGGUAUGAUACCUGGUA [A61G U62A],0.198
10,GUCCUCUUUCACGUGCGCGUGAAAGAGAGAAGUGAACCAGAGAAACACACGUUGUGGUAUGUAACCUGGUA [A61G U63A],0.144
11,GUCCUCUUUCACGUGCGCGUGAAAGAGAGAAGUGAACCAGAGAAACACACGUUGUGGUAUGUCACCUGGUA [A61G U63C],0.253
12,GUCCUCUUUCACGUGCGCGUGAAAGAGAGAAGUGAACCAGAGAAACACACGUUGUGGUAUGUGACCUGGUA [A61G U63G],0.0586
13,GUCCUCUUUCACGUGCGCGUGAAAGAGAGAAGUGAACCAGAGAAACACACGUUGUGGUAUGUUACCCGGUA [A61G U67C],0.113
14,GUCCUCUUUCACGUGCGCGUGAAAGAGAGAAGUGAACCAGAGAAACACACGUUGUGGUAUGUUACCGGGUA [A61G U67G],0.157
15,GUCCUCUUUCACGUGCGCGUGAAAGAGAGAAGUGAACCAGAGAAACACACGUUGUGGUAUGUUACCUGGAA [A61G U70A],0.154
16,GUCCUCUUUCACGUGCGCGUGAAAGAGAGAAGUGAACCAGAGAAACACACGUUGUGGUAUUUUCCCUGGUA [A61U A64C],0.197
17,GUCCUCUUUCACGUGCGCGUGAAAGAGAGAAGUGAACCAGAGAAACACACGUUGUGGUAUUUUGCCUGGUA [A61U A64G],0.121
18,GUCCUCUUUCACGUGCGCGUGAAAGAGAGAAGUGAACCAGAGAAACACACGUUGUGGUAUUUUACCUGGUC [A61U A71C],0.468
19,GUCCUCUUUCACGUGCGCGUGAAAGAGAGAAGUGAACCAGAGAAACACACGUUGUGGUAUUUUACCUGGUG [A61U A71G],0.275

# — the RNAGym collection of RNA variant scans (doi:10.7554/elife.80360)
